The numbers were not newly measured in article PMC12520553, which cites them from elsewhere.

pKd: −log10 of the molar value. Like-named read-outs stand apart in the source and are kept apart here.

The target in data set [1] is RAGE (Homo sapiens) (UniProt Q15109). Briefly: SPR. (In general: Surface plasmon resonance follows binding to a sensor surface in real time, without labels.)
Another data set deals with S100A11 (Homo sapiens) (UniProt P31949). Briefly: NMR.
The next data set deals with S100P (Homo sapiens) (UniProt P25815). Briefly: ITC. Background: Isothermal titration calorimetry measures the heat released or taken up as one component is titrated into another.
Chain of S100P (Homo sapiens) (P25815 whole entry): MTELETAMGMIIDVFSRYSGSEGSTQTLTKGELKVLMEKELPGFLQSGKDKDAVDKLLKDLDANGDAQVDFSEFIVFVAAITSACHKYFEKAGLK
The next data set addresses S100A6m (Homo sapiens) (UniProt P06703). Briefly: ITC.
The target in another data set is Aβ Aβ (Homo sapiens) (UniProt P05067).
Data set [2] concerns the target Aβ42 Aβ42 (Homo sapiens) (UniProt P05067). Briefly: MST.
The target of a further data set is S100A5 (Homo sapiens) (UniProt P33763).
Chain of S100A5 (Homo sapiens) (P33763 whole entry): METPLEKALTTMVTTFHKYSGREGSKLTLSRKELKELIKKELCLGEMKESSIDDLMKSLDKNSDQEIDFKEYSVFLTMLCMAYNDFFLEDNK
The target in the next data set is HMGB1 (Homo sapiens) (UniProt P09429). As to the kind of experiment: SPR.
Chain of HMGB1 (Homo sapiens) (P09429 whole entry): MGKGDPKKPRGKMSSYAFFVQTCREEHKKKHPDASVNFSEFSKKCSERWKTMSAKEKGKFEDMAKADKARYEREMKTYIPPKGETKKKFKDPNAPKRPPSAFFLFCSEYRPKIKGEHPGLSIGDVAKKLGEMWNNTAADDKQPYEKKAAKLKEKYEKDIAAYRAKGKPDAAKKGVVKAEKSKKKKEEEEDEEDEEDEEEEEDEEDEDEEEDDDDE
The target of a further data set is C1q (Homo sapiens) (UniProt P02745). As to the kind of experiment: SPR.
Chain of C1q (Homo sapiens) (P02745 23-245, chain 1 of 3): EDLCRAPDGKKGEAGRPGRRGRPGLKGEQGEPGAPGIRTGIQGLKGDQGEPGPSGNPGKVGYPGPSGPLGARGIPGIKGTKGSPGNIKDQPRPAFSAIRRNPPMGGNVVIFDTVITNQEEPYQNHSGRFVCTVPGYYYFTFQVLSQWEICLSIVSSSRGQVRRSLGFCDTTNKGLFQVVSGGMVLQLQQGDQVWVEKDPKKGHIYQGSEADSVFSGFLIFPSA
Chain of C1q (Homo sapiens) (P02746 28-253, chain 2 of 3, further chain): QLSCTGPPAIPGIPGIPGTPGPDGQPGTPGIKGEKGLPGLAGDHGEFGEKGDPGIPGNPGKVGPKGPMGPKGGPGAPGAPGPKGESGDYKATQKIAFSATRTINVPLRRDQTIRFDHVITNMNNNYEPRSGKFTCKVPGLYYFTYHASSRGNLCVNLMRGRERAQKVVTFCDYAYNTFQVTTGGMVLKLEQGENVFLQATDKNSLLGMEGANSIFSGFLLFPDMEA
Chain of C1q (Homo sapiens) (P02747 29-245, chain 3 of 3, further chain): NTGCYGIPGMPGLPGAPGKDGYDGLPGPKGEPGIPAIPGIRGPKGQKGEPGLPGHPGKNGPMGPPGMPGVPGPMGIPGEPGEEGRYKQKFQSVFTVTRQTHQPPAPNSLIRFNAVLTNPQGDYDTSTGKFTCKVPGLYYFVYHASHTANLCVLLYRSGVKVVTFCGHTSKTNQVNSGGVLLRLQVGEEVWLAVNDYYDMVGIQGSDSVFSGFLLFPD
Data set [3] deals with Aβ40 Aβ40 (Homo sapiens) (UniProt P05067).
Data set [4] shares this target. Briefly: given as Ka.
The target in data set [5] is RAGE (Homo sapiens) (UniProt Q15109).
In the next data set the target is S100A13 (Homo sapiens) (UniProt Q99584). Briefly: ITC.
Chain of S100A13 (Homo sapiens) (Q99584 whole entry): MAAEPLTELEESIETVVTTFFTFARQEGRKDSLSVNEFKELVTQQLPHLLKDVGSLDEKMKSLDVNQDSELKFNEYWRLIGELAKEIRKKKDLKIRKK
For data set [6], the target named is RAGE 23-132 (Homo sapiens) (UniProt Q15109).
The target in data set [7] is S100B (Homo sapiens) (UniProt P04271). Briefly: ITC.
Chain of S100B (Homo sapiens) (P04271 2-92): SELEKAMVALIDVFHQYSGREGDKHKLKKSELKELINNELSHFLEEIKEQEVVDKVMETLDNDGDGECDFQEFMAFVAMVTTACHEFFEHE
The next data set has as its target sRAGE ECD (Homo sapiens) (UniProt Q15109). As to the kind of experiment: MST.
The target of data set [8] is Aβ1-40 Aβ1-40 (Homo sapiens) (UniProt P05067).
The target of another data set is S100A8 (Homo sapiens) (UniProt P05109). Briefly: SPR.
Chain of S100A8 (Homo sapiens) (P05109 whole entry): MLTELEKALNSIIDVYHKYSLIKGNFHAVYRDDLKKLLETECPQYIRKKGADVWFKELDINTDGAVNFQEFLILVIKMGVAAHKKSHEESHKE
A further data set deals with S100A9 (Homo sapiens) (UniProt P06702). As to the kind of experiment: SPR.
Chain of S100A9 (Homo sapiens) (P06702 whole entry): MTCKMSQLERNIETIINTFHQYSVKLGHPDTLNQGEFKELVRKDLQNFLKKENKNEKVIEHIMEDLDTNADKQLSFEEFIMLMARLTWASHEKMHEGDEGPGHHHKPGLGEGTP
The target in data set [9] is fructose-BSA (Bos taurus) (UniProt P02769). As to the kind of experiment: SPR.
Chain of fructose-BSA (Bos taurus) (P02769 25-607): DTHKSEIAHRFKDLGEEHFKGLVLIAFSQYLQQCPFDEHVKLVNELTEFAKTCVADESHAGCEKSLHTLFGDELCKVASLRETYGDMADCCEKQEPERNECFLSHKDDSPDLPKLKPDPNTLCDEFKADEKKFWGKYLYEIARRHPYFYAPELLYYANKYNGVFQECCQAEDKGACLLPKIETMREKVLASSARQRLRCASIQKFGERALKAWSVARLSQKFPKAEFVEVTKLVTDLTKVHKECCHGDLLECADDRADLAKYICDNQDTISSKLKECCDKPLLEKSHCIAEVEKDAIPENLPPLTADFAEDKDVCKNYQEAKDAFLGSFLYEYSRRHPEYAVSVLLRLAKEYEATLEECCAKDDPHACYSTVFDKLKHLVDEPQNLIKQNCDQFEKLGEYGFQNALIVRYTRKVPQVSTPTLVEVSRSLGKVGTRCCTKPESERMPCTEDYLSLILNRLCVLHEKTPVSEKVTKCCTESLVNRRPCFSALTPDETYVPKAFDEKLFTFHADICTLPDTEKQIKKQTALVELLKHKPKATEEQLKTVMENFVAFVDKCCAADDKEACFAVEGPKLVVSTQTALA
The target in another data set is glucose-BSA (Bos taurus) (UniProt P02769). Briefly: SPR.
Chain of glucose-BSA (Bos taurus) (P02769 25-607): as above
The target of data set [10] is Aβ42 Aβ42 (Homo sapiens) (UniProt P05067).
For data set [11], the target named is Aβ40 Aβ40 (Homo sapiens) (UniProt P05067). This is another data set of the same source.
The target of data set [12] is Aβ17-42 Aβ17-42 (Homo sapiens) (UniProt P05067). As to the kind of experiment: MST.
Data set [13] has as its target pS8-Aβ42 Aβ42 (Homo sapiens) (UniProt P05067). As to the kind of experiment: MST.
Data set [14] addresses iso-Aβ42 Aβ42 (Homo sapiens) (UniProt P05067). Briefly: MST.
The target in data set [15] is S100B (dimer) (Homo sapiens) (UniProt P04271). As to the kind of experiment: SPR.
Chain of S100B (dimer) (Homo sapiens) (P04271 2-92): as the sequence (P04271 2-92) above
In data set [16] the target is RAGE V domain (Homo sapiens) (UniProt Q15109).
In data set [17] the target is S100B (Homo sapiens) (UniProt P04271). As to the kind of experiment: SPR.

Chain of S100A9 (P06702 whole entry): as the sequence (P06702 whole entry) above
Chain of S100A8 (P05109 whole entry): as the sequence (P05109 whole entry) above
Chain of S100A11 (Homo sapiens) (P31949 2-105): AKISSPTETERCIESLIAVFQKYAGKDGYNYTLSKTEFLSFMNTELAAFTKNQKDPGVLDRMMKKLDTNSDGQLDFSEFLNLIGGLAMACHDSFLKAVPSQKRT
Chain of fructose-BSA (AGE) (P02769 25-607): as the sequence (P02769 25-607) above
Chain of glucose-BSA (AGE) (P02769 25-607): as above
Chain of S100A5 (P33763 whole entry): as the sequence (P33763 whole entry) above
Chain of S100B (P04271 2-92): as the sequence (P04271 2-92) above

Regarding “fructose-BSA (AGE) (from UniProt P02769)”, in the data set with RAGE (Homo sapiens) [1], the pKd (as a rule, the negative decadic logarithm of the Kd, by convention in mol/L) is 4.71.
For the substance RAGE V domain (from UniProt Q15109), the pKd in the data set with S100A11 (Homo sapiens) is 5.58; with S100P (Homo sapiens), 5.21; with S100A6m (Homo sapiens), 5.52; with Aβ Aβ (Homo sapiens) it was 7.28; in the data set with Aβ42 Aβ42 (Homo sapiens) [2], 6.00; in the data set with S100A5 (Homo sapiens) it was 5.23. In addition, the pKd was 7.01 with HMGB1 (Homo sapiens), 5.25 in the data set with C1q (Homo sapiens), 6.22 in the data set with Aβ40 Aβ40 (Homo sapiens) [3] and 6.20 in the data set with Aβ40 Aβ40 (Homo sapiens) [4].
In the case of “Amyloid-beta 1-40 Abeta 1-40 (from UniProt P05067)”, the pKd with RAGE (Homo sapiens) [5] was 7.24.
Consider RAGE C2 (from UniProt Q15109), for which the pKd in the data set with S100A13 (Homo sapiens) was 5.89.
On to S100B (from UniProt P04271), for which, in data set [6], the pKd is 6.30.
Take RAGE VC1 (from UniProt Q15109): the pKd with S100B (Homo sapiens) [7] is 5.50.
For “Amyloid-beta 17-42 Abeta 17-42 (from UniProt P05067)”, in the data set with sRAGE ECD (Homo sapiens), the pKd was 5.00.
As to RAGE (from UniProt Q15109), the pKd was 7.24 in data set [8]; 7.15 with S100A8 (Homo sapiens); 8.49 in the data set with S100A9 (Homo sapiens); 4.71 in [9]; 4.86 in the data set with glucose-BSA (Bos taurus); 7.04 with Aβ42 Aβ42 (Homo sapiens) [10]. For the same substance, in the data set with Aβ40 Aβ40 (Homo sapiens) [11], the pKd is 7.12.
In the case of S100A9 (from UniProt P06702), the negative-log Kd (pKd) with RAGE (Homo sapiens) [1] is 8.49.
In the case of S100A8 (from UniProt P05109), the pKd in the data set with RAGE (Homo sapiens) [1] is 7.15.
sRAGE ECD (from UniProt Q15109): the pKd in data set [12] was 5.00; in data set [13], 5.15; in data set [14], 4.64; in data set [15], 5.08.
With glucose-BSA (AGE) (from UniProt P02769), the pKd in the data set with RAGE (Homo sapiens) [1] is 4.86.
With S100A5 (from UniProt P33763), in data set [16], the pKd was 5.23.
Consider RAGE 23-132 (from UniProt Q15109), for which the pKd in the data set with S100B (Homo sapiens) [17] was 6.30.
